The source of these data is paper PMC7076015.

Assay [1] concerns the target MBP-KPNA7(E344Q) (human) (UniProt A9QM74).
Assay [2] has the same target. The source holds these as a separate data set.
Assay [3] shares this target. The assay is described as follows: pull-down; MBP fusion proteins on amylose resin (1 μg/μl), GST-GFP-NLS constructs in solution (250 nM or indicated concentrations) with Imp-β (250 nM); 2 hrs at 4 °C, 20 mM Tris pH 8, 200 mM NaCl, 1 mM EDTA, 1 mM DTT, 0.05% Triton X-100; western blot. On the technique in general: Immunoblotting shows a protein as a band on a membrane.

Chain of MBP-KPNA7(E344Q) (human) (A9QM74 whole entry E344Q): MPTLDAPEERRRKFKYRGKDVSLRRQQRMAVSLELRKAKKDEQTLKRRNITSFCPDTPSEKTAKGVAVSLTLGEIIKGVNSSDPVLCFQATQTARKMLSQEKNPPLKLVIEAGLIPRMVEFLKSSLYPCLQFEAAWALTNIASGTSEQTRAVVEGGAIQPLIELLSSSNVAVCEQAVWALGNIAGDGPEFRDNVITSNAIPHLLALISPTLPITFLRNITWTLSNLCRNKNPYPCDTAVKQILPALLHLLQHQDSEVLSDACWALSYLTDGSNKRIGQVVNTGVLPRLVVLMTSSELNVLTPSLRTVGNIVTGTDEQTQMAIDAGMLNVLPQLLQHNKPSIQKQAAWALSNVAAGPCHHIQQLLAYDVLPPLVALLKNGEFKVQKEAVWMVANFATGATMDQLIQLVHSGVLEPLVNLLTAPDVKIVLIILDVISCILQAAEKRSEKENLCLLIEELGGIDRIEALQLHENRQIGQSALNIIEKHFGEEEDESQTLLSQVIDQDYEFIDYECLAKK
Chain of GST-GFP-hnRNP U monopartite NLS (domain or fragment) (Q00839 2-825): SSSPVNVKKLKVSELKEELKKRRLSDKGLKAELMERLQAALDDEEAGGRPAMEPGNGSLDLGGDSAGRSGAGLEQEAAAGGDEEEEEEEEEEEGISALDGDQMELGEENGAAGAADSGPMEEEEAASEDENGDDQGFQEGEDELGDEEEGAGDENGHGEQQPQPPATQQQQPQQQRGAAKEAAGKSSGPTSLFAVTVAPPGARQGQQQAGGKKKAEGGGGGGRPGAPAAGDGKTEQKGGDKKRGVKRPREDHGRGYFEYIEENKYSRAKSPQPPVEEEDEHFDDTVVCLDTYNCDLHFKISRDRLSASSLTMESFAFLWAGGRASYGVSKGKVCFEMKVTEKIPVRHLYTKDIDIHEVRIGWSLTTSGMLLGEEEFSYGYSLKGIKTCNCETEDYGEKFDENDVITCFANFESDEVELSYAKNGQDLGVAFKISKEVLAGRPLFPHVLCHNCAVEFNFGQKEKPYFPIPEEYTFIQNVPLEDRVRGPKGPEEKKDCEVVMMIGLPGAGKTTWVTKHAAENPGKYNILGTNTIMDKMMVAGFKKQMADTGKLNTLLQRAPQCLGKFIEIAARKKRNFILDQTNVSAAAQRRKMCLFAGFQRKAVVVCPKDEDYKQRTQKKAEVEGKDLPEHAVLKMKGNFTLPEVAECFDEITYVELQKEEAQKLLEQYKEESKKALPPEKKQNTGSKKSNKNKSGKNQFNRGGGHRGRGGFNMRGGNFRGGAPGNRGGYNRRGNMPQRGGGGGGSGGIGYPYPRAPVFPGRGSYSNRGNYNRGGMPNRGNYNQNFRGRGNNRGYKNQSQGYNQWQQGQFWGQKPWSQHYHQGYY

In the assay with MBP-KPNA7(E344Q) (human) [1], GST-GFP-SV40-NLS (domain or fragment) displayed a nuclear import of GST-GFP-NLS in digitonin-permeabilized HeLa cells, reduction compared to wild-type KPNA7 of 20%.
Take “GST-GFP-hnRNP U monopartite NLS (domain or fragment)”: the nuclear import of GST-GFP-hnRNP U-mNLS in digitonin-permeabilized HeLa cells, reduction compared to WT KPNA7 in the assay with MBP-KPNA7(E344Q) (human) [2] is 30%. For the same substance, in the assay with MBP-KPNA7(E344Q) (human) [3], the fold less binding than WT or P339A KPNA7 stood at 8 fold.
